For the experiment, the target named is purified C3b (UniProt P01024 23-667; P01024 749-1663). In words: SPR.
Sequence of purified C3b (P01024 23-667, chain 1 of 2): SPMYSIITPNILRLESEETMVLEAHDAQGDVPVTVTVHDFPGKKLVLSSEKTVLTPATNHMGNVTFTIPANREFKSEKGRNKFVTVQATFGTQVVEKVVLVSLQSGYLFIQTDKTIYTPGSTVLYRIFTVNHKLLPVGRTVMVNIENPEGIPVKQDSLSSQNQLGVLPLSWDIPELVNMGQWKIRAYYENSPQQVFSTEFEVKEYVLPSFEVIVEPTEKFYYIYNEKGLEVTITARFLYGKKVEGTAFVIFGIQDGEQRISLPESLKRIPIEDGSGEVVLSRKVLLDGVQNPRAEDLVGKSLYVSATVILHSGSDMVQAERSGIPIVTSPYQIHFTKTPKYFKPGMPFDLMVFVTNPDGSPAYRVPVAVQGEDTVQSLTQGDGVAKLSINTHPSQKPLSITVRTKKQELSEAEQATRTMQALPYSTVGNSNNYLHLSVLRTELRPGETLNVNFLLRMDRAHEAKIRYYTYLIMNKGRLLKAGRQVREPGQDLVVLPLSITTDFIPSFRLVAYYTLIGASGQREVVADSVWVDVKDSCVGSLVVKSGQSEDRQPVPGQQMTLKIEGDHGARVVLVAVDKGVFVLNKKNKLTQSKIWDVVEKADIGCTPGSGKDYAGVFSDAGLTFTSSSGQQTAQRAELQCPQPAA
Sequence of purified C3b (P01024 749-1663, chain 2 of 2): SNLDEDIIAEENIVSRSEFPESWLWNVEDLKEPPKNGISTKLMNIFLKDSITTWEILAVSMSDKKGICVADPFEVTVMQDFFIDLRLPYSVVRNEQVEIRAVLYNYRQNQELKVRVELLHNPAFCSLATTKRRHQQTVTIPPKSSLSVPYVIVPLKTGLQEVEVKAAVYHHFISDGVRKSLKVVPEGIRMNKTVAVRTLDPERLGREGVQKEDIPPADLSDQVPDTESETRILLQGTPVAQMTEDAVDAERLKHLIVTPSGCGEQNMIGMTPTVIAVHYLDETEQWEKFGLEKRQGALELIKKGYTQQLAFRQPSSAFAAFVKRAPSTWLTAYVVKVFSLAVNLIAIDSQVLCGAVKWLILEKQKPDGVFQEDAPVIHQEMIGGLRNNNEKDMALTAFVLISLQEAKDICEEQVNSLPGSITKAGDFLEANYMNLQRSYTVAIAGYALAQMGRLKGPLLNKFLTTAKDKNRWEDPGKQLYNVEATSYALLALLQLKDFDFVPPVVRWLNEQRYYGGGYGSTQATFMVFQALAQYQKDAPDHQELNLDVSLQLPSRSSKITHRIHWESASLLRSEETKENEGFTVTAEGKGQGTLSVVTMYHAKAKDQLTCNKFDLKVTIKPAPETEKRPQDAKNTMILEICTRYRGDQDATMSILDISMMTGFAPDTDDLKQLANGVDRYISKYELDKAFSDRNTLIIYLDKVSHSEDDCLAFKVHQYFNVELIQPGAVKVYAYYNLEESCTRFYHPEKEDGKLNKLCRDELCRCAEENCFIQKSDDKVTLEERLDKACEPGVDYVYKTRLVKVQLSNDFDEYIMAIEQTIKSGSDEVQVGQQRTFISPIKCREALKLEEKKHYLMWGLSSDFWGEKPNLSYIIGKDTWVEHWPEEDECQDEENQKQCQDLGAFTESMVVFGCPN

B1: recombinant wild-type Factor H-related protein 5 (FHR-5WT) (natural protein)
chain: EGTLCDFPKIHHGFLYDEEDYNPFSQVPTGEVFYYSCEYNFVSPSKSFWTRITCTEEGWSPTPKCLRMCSFPFVKNGHSESSGLIHLEGDTVQIICNTGYSLQNNEKNISCVERGWSTPPICSFTKGECHVPILEANVDAQPKKESYKVGDVLKFSCRKNLIRVGSDSVQCYQFGWSPNFPTCKGQVRSCGPPPQLSNGEVKEIRKEEYGHNEVVEYDCNPNFIINGPKKIQCVDGEWTTLPTCVEQVKTCGYIPELEYGYVQPSVPPYQHGVSVEVNCRNEYAMIGNNMITCINGIWTELPMCVATHQLKRCKIAGVNIKTLLKLSGKEFNHNSRIRYRCSDIFRYRHSVCINGKWNPEVDCTEKREQFCPPPPQIPNAQNMTTTVNYQDGEKVAVLCKENYLLPEAKEIVCKDGRWQSLPRCVESTAYCGPPPSINNGDTTSFPLSVYPPGSTVTYRCQSFYKLQGSVTVTCRNKQWSEPPRCLDPCVVSEENMNKNNIQLKWRNDGKLYAKTGDAVEFQCKFPHKAMISSPPFRAICQEGKFEYPICE
On to B1, for which the koff worked out at 0.141 s⁻¹.

The values above are taken from paper PMC8461307 (2021).
